# No end group written: not given here.
# Molecular target: T1, ferritin (FTH) (Homo sapiens, UniProt P02794)
# T1 construct: made in house; host or cells: Escherichia coli BL21 (DE3), plasmid pET20-FTH
# Assay: Encapsulation of fluorescent dye-modified peptide into FTH, column chromatography with absorbance at 480 nm and LC-MS
# Description: Of a 50 mM glycine hydrochloride buffer (pH 2.3) that contains FTH (chemical formula weight: 509,421) at a final concentration of 5 mg/mL and the peptide at a final concentration of 0.5 mM, 0.5 mL was left to stand at room temperature for 15 minutes. Next, 50 μL of a 1 M Tris hydrochloride buffer (pH 9.0) was added for neutralization, and the resulting solution was left to stand at room temperature for 3 hours. After the standing, the resulting solution was centrifuged (at 15,000 rpm for one minute). Then, the supernatant was collected and the volume was increased up to 3 mL with a 10 mM Tris hydrochloride buffer (pH 8). The resulting solution was injected into the HiPrep 26/60 Sephacryl S-300 HR column (GE Healthcare Inc.) equilibrated with a 10 mM Tris-HCl buffer (pH 8.0) to separate and purify 24-mer FTH by size at a flow rate of 1.3 mL/minute. The purified ferritin was analyzed using a HiPrep 16/60 Sephacryl S-300 HR column (GE Healthcare Inc.) equilibrated with a 10 mM Tris-HCl buffer (pH 8.0) at a flow rate of 0.5 mL/minute and confirmed as the absorbance at 480 nm unobservable from FTH only, at the same position as that of a peak of FTH.
# The solution containing the FTH was concentrated to 0.25 mL by centrifugal ultrafiltration using Vivaspin 20-100K (GE Healthcare Inc.). […] For the LC-MS analysis, 50 μL of a 1 M glycine hydrochloride buffer (pH 2.3) was added to 50 μL of the sample solution and then the resulting solution was left to stand at room temperature for 15 minutes. To the solution 900 μL of ethanol was added. Next, the resulting solution was stirred vigorously and then centrifuged (at 15,000 rpm for five minutes) to collect its supernatant. The supernatant was analyzed using LCMS-2020 (Shimadzu Corporation) as LC-MS, inertsil (Registered trademark) ODS-3 with a particle diameter of 2 μm and 2.1 mm×50 mm (GL science) as a column. Into the column, 10 μL of the sample was injected, and eluded at a flow rate of 0.2 mL/min for 10 minutes such that a mixing ratio of a solution A (0.1% formic acid/99.9% acetonitrile) and a solution B (50% water/50% acetonitrile) was from 95:5 to 95:5. The concentration of the contained protein was determined using a protein assay CBB solution (Nacalai Tesque, Inc.) in terms of bovine albumin as a standard. The concentration of the encapsulated peptide was determined based on the absorbance at 480 nm of the fluorescent dye FAM to which PKC-F is modified.
# First, the construction of FTH encapsulating two kinds of fluorescent dye-modified peptides [5(6)—FAM-[…] (SEQ ID NO: 10), FAM-SV40, chemical formula weight 1,516, and 5(6)—FAM-[…] […] (SEQ ID NO: 11), FAN-Np, chemical formula weight 384] was attempted. 0.5 mL of a 50 mM glycine hydrochloride buffer (pH 2.3) that contains FTH (chemical formula weight 509,421) at a final concentration of 5 mg/mL and a peptide at a final concentration of 0.5 mM, was left to stand at room temperature for 15 minutes. Next, 50 μL of a 1 M Tris hydrochloride buffer (pH 9.0) was added for neutralization, and the resulting solution was left to stand at room temperature for 3 hours. […] The absorbance at […] was confirmed at the same elusion position as that of ferritin 24-mer, for ferritin that was used for the operation to encapsulate FAM-SV40 therein. […] Next, the peptide amount of FAM-SV40 encapsulated in purified ferritin was quantified based on the 480 nm absorbance and by CBB staining with use of ferritin-amount-albumin as a standard.
# T1 sequence (P02794 whole entry): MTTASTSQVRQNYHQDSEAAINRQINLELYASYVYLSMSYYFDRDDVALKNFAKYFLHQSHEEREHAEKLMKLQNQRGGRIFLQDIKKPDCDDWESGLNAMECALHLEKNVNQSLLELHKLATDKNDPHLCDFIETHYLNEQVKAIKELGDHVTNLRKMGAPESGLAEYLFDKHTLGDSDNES
substance,measurement,setting,value
"5(6)-FAM-CGGPKKKRKVG (SEQ ID NO: 10) ({5(6)‑FAM}-CGGPKKKRKVG) [FAM-SV40, fluorescent dye-modified peptide, linear]",molecules of peptide encapsulated in one molecule of ferritin on average,"FTH, from molar ratio",2.5 molecules
same,encapsulation of peptide in FTH,"absorbance at 480 nm at elution position of 24-mer FTH, LC-MS",encapsulated in ferritin
